Assay [1] deals with T1, HLA-DRB1*04:01 (human, UniProt P01903 26-216; P01911 30-227, limits assumed).
T1 construct: whole, on cells; on T2 cells; also called DR4
T1 MHC II alpha: not shown
T1 MHC II beta: not shown
Kind of assay: flow cytometry, biotinylated peptide on HLA-expressing T2 cells, streptavidin-PE.

Assay [2] deals with T2, HLA-DQ2 (DQA1*05:01/DQB1*02:01) (human, UniProt P01909 24-216, limits assumed).
T2 construct: whole, on cells; on T2 cells
Nature of the assay: flow cytometry, biotinylated peptide titrated on HLA-expressing T2 cells, streptavidin-PE.

For assay [3], the target named is T3, HLA-DQ8 (DQA1*03:01/DQB1*03:02) (human, UniProt P01909 24-216; P01920 33-230, limits assumed).
T3 construct: whole, on cells; on T2 cells
T3 MHC II alpha: not shown
T3 MHC II beta: not shown
Described as above.

Assay [4] has as its target T4, HLA-DQ2 trans (DQA1*03:01/DQB1*02:01) (human, UniProt P01909 24-216, limits assumed).
T4 construct: whole, on cells; on T2 cells
T4 MHC II alpha: not shown
T4 MHC II beta: not shown
The assay is described as above.

Assay [5] concerns the target T5, HLA-DQ2 A57D (DQA1*05:01/DQB1*02:01 A57D) (human, UniProt P01909 24-254; P01920 33-261).
T5 construct: A57D variant of the DQB1 chain, cloned into T2 cells
T5 alpha: not shown
T5 beta: not shown
The assay is described as above.

Assay [6] deals with T6, HLA-DRB1*15:01 (human, UniProt P01903 26-216; P01911 30-227, limits assumed).
T6 construct: whole, on cells; HLA class II molecule expressed on class II negative T2 cells that carry DRA1*01:01
Kind of assay: flow cytometry, biotinylated peptide on HLA-expressing T2 cells, streptavidin-PE.

The target in assay [7] is T7, HLA-DRB1*04:01 G86L (human).
T7 construct: pocket 1 variant on T2 cells
Described as above.

The target of assay [8] is T8, HLA-DRB1*15:01 F47Y (human).
T8 construct: engineered allele on T2 cells
The assay is described as above.

Assay [9] concerns the target T9, HLA-DRB1*15:01 A71R (human).
T9 construct: engineered allele on T2 cells
The assay is described as above.

Assay [10] addresses T10, HLA-DRB1*15:01 V86G (human).
T10 construct: engineered allele on T2 cells
The description is as above.

The target of assay [11] is T11, HLA-DRB1*07:01 (human).
T11 construct: whole, on cells; on T2 cells by the general method; the making of this line is not described on its own; also called resistant allele (NMO)
The assay is described as above.

Where no end group is shown, it is not given here. The star is where a group is joined. Biotin = O=C1N[C@H]2[C@H](CS[C@H]2CCCCC(=O)*)N1; PEGS = not defined here

For the molecule HLVEELYLVAGEEG (also: biotinylated, site not given here) [Insulin Mimotope peptide], the binding result is recorded as “binds” in assay [1]; “no binding” in [2]; “binds” in [3]; “binds” in assay [4]; “binds” in assay [5].
Regarding AQGTLSKIFKLGGRDSRSGSPMARR (also: biotinylated, site not given here) [MBP^146-170 peptide], the binding result in assay [6] is on record as “no binding (tested: 100 µM (general method))”; in assay [7], “binds”; in [8], “binds”; in assay [9], “binds”; in [10] it was “binds”.
With {Biotin-PEGS}-SLQPLALEAEDLQV (reading uncertain) [Hybrid Insulin Peptide HIP11-C peptide], the binding result in assay [1] is “no binding (tested: 100 uM)”; in [7], “no binding (tested: 100 uM)”; in assay [3] it was “no binding”; in [4], “binds”; in assay [5] it was “binds”.
On to {Biotin-PEGS}-GQVELGGGNAVEVLK (reading uncertain) [Hybrid Insulin Peptide HIP6-IAPP2], for which the binding result in assay [1] and in assay [7] was “no binding (tested: 100 uM)” throughout.
With {Biotin-PEGS}-GQVELGGGSSPETLI (reading uncertain, also called HIP9; HIP9-NPY) [Hybrid Insulin Peptide HIP8-NPY], the binding result in assay [1] was “no binding (tested: 100 uM)”; in [7], “no binding (tested: 100 uM)”; in [2], “no binding”; in [4], “binds”; in [5], “binds”.
Regarding RSQVETDDLILKPGV (peptide, UniProt P55087 284-298, looked up, also: biotinylated, site not given here, also called aquaporin 4 peptide 5) [AQP4-5 peptide], the binding result in [11] was “no binding (tested: 100 µM (general method))”.
Regarding AMMIARFKMFPEVKEKG (also: biotinylated, site not given here) [GAD65^265-281 peptide], the binding result in assay [7] is reported as “no binding (tested: 100 uM)”.
With ENPVVHFFKNIVTPRTPPP (also: biotinylated, site not given here) [MBP^83-101 peptide], the binding result in assay [6] and in assay [7] was “binds” throughout.
For {Biotin-PEGS}-GQVELGGWSKMDQLA (reading uncertain) [Hybrid Insulin Peptide HIP1-WE14], the binding result in assay [1] and in assay [7] was “no binding (tested: 100 uM)” in each case.
Take LVRYWISAFP (also: biotinylated, site not given here, also called RASDRP2) [RASGRP2 78-87 peptide]: the binding result in assay [6] and in [1] was “binds” each time.
For FFRDHSYQEEA (also: biotinylated, site not given here) [MOG^97-109 peptide], the binding result in assay [7] is on record as “no binding (tested: 100 uM)”.
Take SQVETDDLILKPGVV (peptide, UniProt P55087 285-299, looked up, also: biotinylated, site not given here, also called aquaporin 4 peptide 6) [AQP4-6 peptide]: in assay [11], the binding result is recorded as “no binding (tested: 100 µM (general method))”.
